Residue numbers refer to the chain shown, from its start. Numbers in names are those of the source.
Experiments:
[1] = biological target: AttoOxa11-modified Q50C mutant of the MaSp1 NTD from Euprosthenops australis (Euprosthenops australis); experiment: stopped-flow AttoOxa11 fluorescence chasing experiment (dissociation kinetics); dimer to monomers; 0.1 uM dimeric AttoOxa11-modified NTD in 20 mM MES pH 6.0, I 60 mM (KCl), chased with 9 uM non-modified NTD in the same buffer; 0.3 mg/mL BSA and 0.05% Tween-20; 298 K; mono-exponential fit
[2] = biological target: MaSp1 N-terminal domain (NTD), E. australis (UniProt Q05H60); experiment: Kd calculated by the authors from the stopped-flow rate constants (kdiss from C4 / kass from C3); details: pH 6.0; 298 K; about 60 mM (KCl) for kdiss; not stated exactly for kass; 20 mM MES pH 6.0
[3] = biological target: MaSp1 N-terminal domain (NTD), E. australis (UniProt Q05H60); experiment: stopped-flow Trp fluorescence, pH jump (association kinetics); details: pH 6.0; 298 K; final value not stated (sample at I 150 mM KCl diluted 1:11 into 20 mM MES pH 6.0); 20 mM MES pH 6.0 after mixing (start: 10 mM MES pH 7.0)
[4] = biological target: MaSp1 N-terminal domain (NTD), L. geometricus; experiment: Kd calculated by the authors from the stopped-flow rate constants (kdiss from C4 / kass from C3); details: pH 6.0; 298 K; about 60 mM (KCl) for kdiss; not stated exactly for kass; 20 mM MES pH 6.0
[5] = biological target: MaSp1 N-terminal domain (NTD), L. geometricus; experiment: stopped-flow Trp fluorescence, pH jump (association kinetics); details: pH 6.0; 298 K; final value not stated (sample at I 150 mM KCl diluted 1:11 into 20 mM MES pH 6.0); 20 mM MES pH 6.0 after mixing (start: 10 mM MES pH 7.0)
[6] = biological target: MaSp1 N-terminal domain (NTD), L. hesperus (UniProt A6YIY1); experiment: Kd calculated by the authors from the stopped-flow rate constants (kdiss from C4 / kass from C3); details: pH 6.0; 298 K; about 60 mM (KCl) for kdiss; not stated exactly for kass; 20 mM MES pH 6.0
[7] = biological target: MaSp1 N-terminal domain (NTD), L. hesperus (UniProt A6YIY1); experiment: stopped-flow Trp fluorescence, pH jump (association kinetics); details: pH 6.0; 298 K; final value not stated (sample at I 150 mM KCl diluted 1:11 into 20 mM MES pH 6.0); 20 mM MES pH 6.0 after mixing (start: 10 mM MES pH 7.0)
[8] = biological target: MaSp1 N-terminal domain (NTD), N. clavipes (UniProt B5SYS5); experiment: Kd calculated by the authors from the stopped-flow rate constants (kdiss from C4 / kass from C3); details: pH 6.0; 298 K; about 60 mM (KCl) for kdiss; not stated exactly for kass; 20 mM MES pH 6.0
[9] = biological target: MaSp1 N-terminal domain (NTD), N. clavipes (UniProt B5SYS5); experiment: stopped-flow Trp fluorescence, pH jump (association kinetics); details: pH 6.0; 298 K; final value not stated (sample at I 150 mM KCl diluted 1:11 into 20 mM MES pH 6.0); 20 mM MES pH 6.0 after mixing (start: 10 mM MES pH 7.0)
[10] = biological target: MaSp1 NTD Q50C-AttoOxa11, E. australis Q50C (UniProt Q05H60); experiment: stopped-flow AttoOxa11 fluorescence, chasing experiment (dissociation kinetics); details: pH 6.0; 298 K; I adjusted to 60 mM using potassium chloride; 20 mM MES pH 6.0
[11] = biological target: MaSp1 NTD Q50C-AttoOxa11, L. geometricus Q50C; experiment: as above; details: pH 6.0; 298 K; I adjusted to 60 mM using potassium chloride; 20 mM MES pH 6.0
[12] = biological target: MaSp1 NTD Q50C-AttoOxa11, L. hesperus Q50C (UniProt A6YIY1); experiment: as above; details: pH 6.0; 298 K; I adjusted to 60 mM using potassium chloride; 20 mM MES pH 6.0
[13] = biological target: MaSp1 NTD Q50C-AttoOxa11, N. clavipes Q50C (UniProt B5SYS5); experiment: as above; details: pH 6.0; 298 K; I adjusted to 60 mM using potassium chloride; 20 mM MES pH 6.0
[14] = biological target: N-terminal domain (NTD) of major ampullate spidroin 1 (MaSp1) from Latrodectus hesperus (Latrodectus hesperus); experiment: SEC-MALS; dimer conditions: 20 mM MES pH 6.0, ionic strength 60 mM (KCl); 100 uL at 5 mg/mL on Superdex-75 HR10/300, 0.5 ml/min
[15] = biological target: N-terminal domain (NTD) of major ampullate spidroin 1 (MaSp1) from Latrodectus hesperus (Latrodectus hesperus); experiment: stopped-flow tryptophan fluorescence + other: stopped-flow AttoOxa11 fluorescence chasing experiment; dimer to monomers; Kd calculated as k diss/k ass from the two kinetic experiments; pH 6.0, 298 K
[16] = biological target: N-terminal domain (NTD) of major ampullate spidroin 1 (MaSp1) from Latrodectus hesperus (Latrodectus hesperus); experiment: stopped-flow tryptophan fluorescence (association kinetics); monomer to dimer; monomeric NTD in 10 mM MES pH 7.0, I 150 mM (KCl), mixed 1:11 into 20 mM MES pH 6.0; three concentrations between 0.1 and 1 uM; 298 K; fit to a kinetic model of dimerization
[17] = biological target: N-terminal domain (NTD) of major ampullate spidroin 1 (MaSp1) from Nephila clavipes (Nephila clavipes); experiment: SEC-MALS; dimer conditions: 20 mM MES pH 6.0, ionic strength 60 mM (KCl); 100 uL at 5 mg/mL on Superdex-75 HR10/300, 0.5 ml/min
[18] = biological target: N-terminal domain (NTD) of major ampullate spidroin 1 (MaSp1) from Nephila clavipes (Nephila clavipes); experiment: stopped-flow tryptophan fluorescence + other: stopped-flow AttoOxa11 fluorescence chasing experiment; dimer to monomers; Kd calculated as k diss/k ass from the two kinetic experiments; pH 6.0, 298 K
[19] = biological target: N-terminal domain (NTD) of major ampullate spidroin 1 (MaSp1) from Nephila clavipes (Nephila clavipes); experiment: stopped-flow tryptophan fluorescence (association kinetics); monomer to dimer; monomeric NTD in 10 mM MES pH 7.0, I 150 mM (KCl), mixed 1:11 into 20 mM MES pH 6.0; three concentrations between 0.1 and 1 uM; 298 K; fit to a kinetic model of dimerization
[20] = biological target: the molecule itself; experiment: stopped-flow AttoOxa11 fluorescence chasing experiment (dissociation kinetics); dimer to monomers; 0.1 uM dimeric AttoOxa11-modified NTD in 20 mM MES pH 6.0, I 60 mM (KCl), chased with 9 uM non-modified NTD in the same buffer; 0.3 mg/mL BSA and 0.05% Tween-20; 298 K; mono-exponential fit
[21] = biological target: the molecule itself; experiment: SEC-MALS; dimer conditions: 20 mM MES pH 6.0, ionic strength 60 mM (KCl); 100 uL at 5 mg/mL on Superdex-75 HR10/300, 0.5 ml/min
[22] = biological target: the molecule itself; experiment: stopped-flow tryptophan fluorescence (association kinetics); monomer to dimer; monomeric NTD in 10 mM MES pH 7.0, I 150 mM (KCl), mixed 1:11 into 20 mM MES pH 6.0; three concentrations between 0.1 and 1 uM; 298 K; fit to a kinetic model of dimerization
[23] = biological target: the molecule itself; experiment: stopped-flow tryptophan fluorescence + other: stopped-flow AttoOxa11 fluorescence chasing experiment; dimer to monomers; Kd calculated as k diss/k ass from the two kinetic experiments; pH 6.0, 298 K
[24] = biological target: T1, N-terminal domain (NTD) of major ampullate spidroin 1 (MaSp1) from Euprosthenops australis (Euprosthenops australis), Q05H60; experiment: SEC-MALS; dimer conditions: 20 mM MES pH 6.0, ionic strength 60 mM (KCl); 100 uL at 5 mg/mL on Superdex-75 HR10/300, 0.5 ml/min; details: remark: other sources report otherwise
T1 chain: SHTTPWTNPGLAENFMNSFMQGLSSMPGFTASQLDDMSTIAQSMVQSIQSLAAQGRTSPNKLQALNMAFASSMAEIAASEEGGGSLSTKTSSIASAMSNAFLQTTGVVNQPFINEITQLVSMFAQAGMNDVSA

[25] = biological target: T1, N-terminal domain (NTD) of major …; experiment: stopped-flow tryptophan fluorescence + other: stopped-flow AttoOxa11 fluorescence chasing experiment; dimer to monomers; Kd calculated as k diss/k ass from the two kinetic experiments; pH 6.0, 298 K; details: remark: other sources report otherwise
[26] = biological target: T1, N-terminal domain (NTD) of major …; experiment: stopped-flow tryptophan fluorescence (association kinetics); monomer to dimer; monomeric NTD in 10 mM MES pH 7.0, I 150 mM (KCl), mixed 1:11 into 20 mM MES pH 6.0; three concentrations between 0.1 and 1 uM; 298 K; fit to a kinetic model of dimerization; details: remark: other sources report otherwise

AttoOxa11-modified Q50C mutant of the MaSp1 NTD from Euprosthenops australis (domain or fragment)
koff [1]: 1.68 s⁻¹

MaSp1 N-terminal domain (NTD), E. australis
K d [2]: 1.07 10^-9 M | k ass (10^9 M^-1 s^-1) [3]: 1.58

MaSp1 N-terminal domain (NTD), L. geometricus
K d [4]: 0.46 10^-9 M | k ass (10^9 M^-1 s^-1) [5]: 1.39

MaSp1 N-terminal domain (NTD), L. hesperus
K d [6]: 0.14 10^-9 M | k ass (10^9 M^-1 s^-1) [7]: 2.19

MaSp1 N-terminal domain (NTD), N. clavipes
K d [8]: 0.73 10^-9 M | k ass (10^9 M^-1 s^-1) [9]: 2.58

MaSp1 NTD Q50C-AttoOxa11, E. australis Q50C
k diss [10]: 1.68 s⁻¹

MaSp1 NTD Q50C-AttoOxa11, L. geometricus Q50C
k diss [11]: 0.64 s⁻¹

MaSp1 NTD Q50C-AttoOxa11, L. hesperus Q50C
k diss [12]: 0.31 s⁻¹

MaSp1 NTD Q50C-AttoOxa11, N. clavipes Q50C
k diss [13]: 1.88 s⁻¹

N-terminal domain (NTD) of major ampullate spidroin 1 (MaSp1) from Latrodectus hesperus (domain or fragment)
stoichiometry N [14]: 2 | K d [15]: 0.14 nM | kon [16]: 2.19e+09 M⁻¹ s⁻¹

N-terminal domain (NTD) of major ampullate spidroin 1 (MaSp1) from Nephila clavipes (domain or fragment)
stoichiometry N [17]: 2 | K d [18]: 0.73 nM | kon [19]: 2.58e+09 M⁻¹ s⁻¹

B1: AttoOxa11-modified Q50C mutant of the MaSp1 NTD from Latrodectus hesperus (domain or fragment)
chain: PWSSKANADAFINSFISAASNTGSFSQDQMEDMSLIGNTLMCAMDNMGGRITPSKLQALDMAFASSVAEIAASEGGDLGVTTNAIADALTSAFYQTTGVVNSRFISEIRSLIGMFAQASAN
modifications: AttoOxa11 (maleimide derivative) on the cysteine at sequence position 50
koff [20]: 0.31 ± 0.02 s⁻¹

B2: N-terminal domain (NTD) of major ampullate spidroin 1 (MaSp1) from Latrodectus geometricus (domain or fragment)
chain: B1 chain with A18S, S20Q, E31D, C42T, S102N, G113S
stoichiometry N [21]: 2 | kon [22]: 1.39e+09 M⁻¹ s⁻¹ | Kd [23]: 0.46 nM

B3: AttoOxa11-modified Q50C mutant of the MaSp1 NTD from Latrodectus geometricus (domain or fragment)
chain: B1 chain with A18S, S20Q, E31D, S102N, G113S
modifications: AttoOxa11 (maleimide derivative) on the cysteine at sequence position 50
koff [20]: 0.64 ± 0.02 s⁻¹

B4: AttoOxa11-modified Q50C mutant of the MaSp1 NTD from Nephila clavipes (domain or fragment)
chain: PWSSTELADAFINAFMNEAGRTGAFTADQLDDMSTIGDTIKCAMDKMARSNKSSKGKLQALNMAFASSMAEIAAVEQGGLSVDAKTNAIADSLNSAFYQTTGAANPQFVNEIRSLINMFAQSSAN
modifications: AttoOxa11 (maleimide derivative) on the cysteine at sequence position 50
koff [20]: 1.88 ± 0.05 s⁻¹

B5: N-terminal domain (NTD) of major ampullate spidroin 1 (MaSp1) from Euprosthenops australis, Q05H60 24-156 (domain or fragment)
chain: T1 chain
stoichiometry N [24]: 2 | K d [25]: 1.07 nM | kon [26]: 1.58e+09 M⁻¹ s⁻¹
